This note sets out measurements from patent publication US12018084B2, “Anti-CXCR2 antibodies and uses thereof” (Cephalon LLC, priority 2018, dated 2024).

Read-outs that look alike come from different tables or passages of the source.

One experiment addresses T1, Human CXCR2 (Homo sapiens, UniProt P25025).
T1 sequence (P25025 1-360): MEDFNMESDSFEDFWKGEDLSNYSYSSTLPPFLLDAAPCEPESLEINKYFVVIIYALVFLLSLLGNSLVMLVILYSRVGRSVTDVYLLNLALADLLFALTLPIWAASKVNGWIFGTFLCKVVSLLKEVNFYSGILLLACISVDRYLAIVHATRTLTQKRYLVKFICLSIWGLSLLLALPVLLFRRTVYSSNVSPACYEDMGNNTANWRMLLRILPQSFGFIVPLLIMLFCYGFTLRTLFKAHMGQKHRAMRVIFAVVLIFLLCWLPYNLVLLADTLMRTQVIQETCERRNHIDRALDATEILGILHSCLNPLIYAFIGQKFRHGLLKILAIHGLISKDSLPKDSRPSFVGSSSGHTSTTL
The experiment is described as follows: Tango CXCR2-bla U2OS cell-based β-arrestin recruitment assay. Details: The beta-arrestin/TEV protease fusion and the beta-lactamase reporter are separate parts of the cell line. The source says:
Cells were thawed, propagated, cultured and frozen according to the manufacturer's directions.
Preparation of Tango™ CXCR2-bla U2OS cells for use in cell-based assays: The manufacturer's protocol was altered to make use of 96-well plates instead of 384-well plates. Briefly, dividing cells were harvested one day prior to use. Cells were harvested and resuspended in assay medium (100% FreeStyle™ Expression Medium; Life Technologies; Cat #12338-018) at a viable cell density of 312,500 cells/mL. 128 μL of cell suspension was added per well in 96-well black-walled, clear bottom tissue culture-treated plates. Cells were incubated for 16-20 hrs at 37° C. in an atmosphere of 5% CO2 prior to use in assays.
Tango™ assay procedure: Assays were set up and run as described in the manufacturer's protocol. For antagonist assays, agonists were used at concentrations in the EC50-EC80 range. Assays were read using a FlexStation® 3 (Molecular Devices) fluorescence plate reader configured with the parameters given in Table 4. The blue/green emission ratio for each well was calculated by dividing the blue emission values by the green emission values. All inhibition curves were fitted using a four-parameter dose-response using GraphPad Prism™ (Version 7.01).
The Human CXCR2 Tango™ cell line was used to assess the ability of antibody BKO-4A8-101c to inhibit β-arrestin recruitment to agonist-activated CXCR2. All human ELR+ chemokine CXCR2 ligands were tested in antagonist dose response assays using calculated EC50 values of agonist.
The commercially available reporter cell line Tango™ CXCR2-bla U2OS (ThermoFisher Scientific) was used to assess the ability of the anti-CXCR2 antibodies to inhibit β-arrestin recruitment to agonist-activated CXCR2. Agonists were provided at their assay EC50 concentration for antagonist assays.

Experiment [1] has as its target T2, native human CXCR2 expressed by human neutrophils (Homo sapiens, UniProt P25025).
T2 construct: native human CXCR2 expressed by human neutrophils; endogenous in cells; host or cells: human peripheral blood cells (buffy coat, PBMC-enriched fractions, anticoagulated blood): neutrophils, monocytes
T2 sequence (P25025 1-360): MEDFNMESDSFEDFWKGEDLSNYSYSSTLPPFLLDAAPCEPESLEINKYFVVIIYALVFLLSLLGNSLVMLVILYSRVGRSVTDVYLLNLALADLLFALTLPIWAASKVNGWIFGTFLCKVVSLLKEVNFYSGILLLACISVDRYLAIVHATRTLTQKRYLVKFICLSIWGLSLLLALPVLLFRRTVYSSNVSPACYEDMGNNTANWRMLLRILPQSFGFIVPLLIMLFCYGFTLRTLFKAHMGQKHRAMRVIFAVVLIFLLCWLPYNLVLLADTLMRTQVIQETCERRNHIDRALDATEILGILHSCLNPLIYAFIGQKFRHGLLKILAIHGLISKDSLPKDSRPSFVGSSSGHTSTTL
The experiment can be described thus: Flow cytometry binding to human blood cells (neutrophils, monocytes, PBMC preparations). How it is done: Whole human buffy coat, PBMC enriched fractions prepared from human peripheral blood buffy coat or cynomolgus monkey whole blood was used for analysis of antibody binding activity by flow cytometry. Briefly, blood was untreated or diluted 1:1 in sterile filtered room temperature phosphate-buffered saline (PBS). 30 mL samples were layered over 15 mL Lymphoprep™ (Stem Cell Technologies, cat #07851). Peripheral blood mononuclear cells (PBMC) were enriched by room temperature centrifugation at 700 g for 30 minutes with no braking. The PBMC layer was isolated and cells washed in PBS containing 2 mM EDTA with low speed centrifugation at 200 g, to remove platelet contamination. Whole blood or PBMC enriched cell fractions were resuspended in red blood cell lysing solution (BioLegend, 420301). Viable cell counts were determined and cells resuspended at 1×10^7 cells per mL in FACS buffer (1×PBS+0.5% (w/v) BSA+2 mM EDTA pH 7.2).
Flow cytometry binding assays using whole blood or PBMC enriched preparations: Binding assays to detect CXCR2 on blood neutrophil populations using test antibodies were performed essentially as described for assays using transiently transfected Expi293F™ cells. Binding of antibodies to human CXCR2 on the surface of the neutrophils was measured using anti-CXCR2 antibody directly conjugated to the fluorophore allophycocyanin (APC). Matched isotype control antibodies were included for comparison. Cells were incubated with lineage specific antibodies and 2 μg/ml of APC conjugated anti-CXCR2 antibody or isotype control prepared in ice cold 3% BSA/PBS for a minimum of 30 minutes at 4° C. The commercial anti-CXCR2 antibody (clone 48331 (R&D Systems FAB331A)) was used as a positive control. Neutrophil populations were identified by characteristic granularity and size, and positive binding of commercially available antibodies against CD10 (Biolegend, clone H110a, catalogue number 312204). Cells were washed and fixed (BioLegend Fixation buffer, 420801) prior to analysis. The level of fluorescence on the cell surface was measured by flow cytometry. Using this method, test anti-CXCR2 antibodies were detected binding neutrophils from both human and cynomolgus monkey.
To further characterize the anti-CXCR2 antibody BKO-4A8-101c, the ability to bind CXCR2 on neutrophils was tested on anticoagulated human blood. Binding was measured using BKO-4A8-101c directly conjugated to fluorophore APC. Matched isotype control antibodies conjugated to APC were included for comparison. Cells were incubated with lineage-specific antibodies and 2 μg/mL of APC conjugated anti-CXCR2 antibody or isotype control. The level of fluorescence on the cell surface was measured by flow cytometry. […]
A general note: A flow cytometer gives signals particle by particle.

B1: BKO-4A8: parental anti-CXCR2 antibody, VH SEQ ID NO: 17, VL SEQ ID NO: 18 (antibody, V domains shown)
VH: EVQLLESGGGLVQPGGSLRLSCAASGFTFSSSTMSWVRQAPGKGLEWVSAISGRGRNTYYADSVKGRFTISRDNSRNTLYLQMNSLRAEDTAVYYCAIQMGYWGQGILVTVSS
VL: QSALTQPPSASGSPGQSVTISCIGTSSDVGGYNYVSWYQQHPDKAPKLMIYEVNKRPSGVPDRFSGSKSGNTASLTVSGLQAEDEADYYCSSYAGNNNFGVFGGGTKLTVL
modifications: BKO_4A8_VH; BKO_4A8_VL
For orientation: IC50 means the midpoint of a concentration-inhibition curve. For B1, the “potency of inhibition of CXCL1-mediated activation of CXCR2, ranking” value in the experiment with Human CXCR2 (agonist CXCL1, BKO-4A8, BKO-8G3_b, BKO-9C3_a compared) is on record as “consistently the most potent”. For the same molecule, the half-inhibitory concentration (IC50) is 94 nM with Human CXCR2 (agonist CXCL1, combinatorial variants, read-out: CXCL1 IC50); 0.177 nM with Human CXCR2 (agonist CXCL1, point variants, read-out: Tango Assay IC50 (nM) CXCL1); 0.66 nM with Human CXCR2 (read-out: CXCL8 IC50, agonist CXCL8, combinatorial variants); 0.112 nM with Human CXCR2 (read-out: Tango Assay IC50 (nM) CXCL8, agonist CXCL8, point variants). In experiment [1] (FIG. 2, MFI), the “binding to native human CXCR2 on human PBMCs / neutrophils” value is listed as “high binding activity”.

B2: 101c: VH SEQ ID NO: 108, VL SEQ ID NO: 110; renamed BKO-4A8-101c (antibody, V domains shown)
VH: EVQLLESGGGLVQPGGSLRLSCAASGFTFSSSTQSWVRQPPGKGLEWVSAISGRGRSTYYADSVKGRFTISRDNSKNTLYLQMNSLRAEDTAVYYCAIQAGYWGQGILVTVSS
VL: QSALTQPPSASGSPGQSVTISCIGTSSDVGGYNYVSWYQQHPGKAPKLMIYEVSKRPSGVPDRFSGSKSGNTASLTVSGLQAEDEADYYCSSYAGSNNFGVFGGGTKLTVL
modifications: 4A8 VH Variant 101 M34Q_A40P_N56S_R75K_M96A; 4A8 VL variant c D41G_N52S_N94S
notes: renamed BKO-4A8-101c
For the molecule B2, the “fold more potent than comparator CXCR2 antagonist antibodies or small molecules” value with Human CXCR2 (CXCL1- or CXCL5-mediated β-arrestin activation, based on IC50 values) is reported as 2- to 39 fold. In the experiment with Human CXCR2 (CXCL1 at EC50, comparison with comparators), the “CXCL1 Maximal Inhibition %” value is reported as 97%. Also, the “potency compared to the parental antibody” value with Human CXCR2 (CXCL1 or CXCL8 as agonist) was “improved potency”. For the same molecule, the “CXCL5 Maximal Inhibition %” value with Human CXCR2 (CXCL5 at EC50, comparison with comparators) is 98%. In addition, the “partial inhibition of CXCL8-induced β-arrestin recruitment (range)” value in the experiment with Human CXCR2 (CXCL8) was 70-80%. The “CXCL8 Maximal Inhibition %” value with Human CXCR2 (CXCL8 at EC50, comparison with comparators) came out at 78%. Further, the “Maximal Inhibition % Mean” value with Human CXCR2 (Hu CXCL1) came to 98%; with Human CXCR2 (Hu CXCL2), 100%; with Human CXCR2 (Hu CXCL3), 96%; in the experiment with Human CXCR2 (Hu CXCL5) it was 98%; in the experiment with Human CXCR2 (Hu CXCL6) it was 98%; in the experiment with Human CXCR2 (Hu CXCL7), 76%. The “Maximal Inhibition % Mean” value in the experiment with Human CXCR2 (Hu CXCL8) came out at 78%. Further, the “binding to neutrophils and monocytes from human blood” value in experiment [1] (APC conjugate, 2 μg/mL) is “bound neutrophils (FIG. 12A) and monocytes (FIG. 12B)”.
